This series concerns the molecule itself. The series can be described thus: size exclusion chromatography (HPLC, TSK G3000SW xL), self-association. Here is the method:
0.02 ml of 5 to 20 μM protein was injected into a TSK G3000SW xL column (TosoHaas, Japan), and a phosphate buffered solution (50 mM sodium phosphate/150 mM NaCl, pH7.4) flowed at a rate of 0.7 ml/min. In this case, the chromatogram was obtained by measuring absorbance values at 280 nm.
(In general: Size exclusion chromatography separates by hydrodynamic size, large species first.)

B1: 3D8 VH protein (other)
VH: AREVQLQQSGPELVKPGASVKMSCKASGYTFTSYVMHWVKQKPGQGLEWIGYINPYNDGTKYNEKFKGKATLTSDKSSSTAYMELSSLTSEDSAVYYCARGAYKRGYAMDYWGQGTSVTVSS
notes: Isolated heavy chain variable domain of the anti-nucleic acid antibody 3D8, purified as a single domain; also called VH chain; VH domain
As to B1, the binding result was “no binding (tested: 5 to 20 µM)”.

B2: 3D8 VL protein (other)
VL: DLVMSQSPSSLAVSAGEKVTMSCKSSQSLFNSRTRKNYLAWYQQKPGQSPKLLIYWASTRESGVPDRFTGSGSGTDFTLTISSVQAEDLAVYYCKQSYYHMYTFGSGTKLEIK
notes: Isolated light chain variable domain of the anti-nucleic acid antibody 3D8, purified as a single domain and immobilized on a CM5 chip for SPR; also called VL chain; VL domain
Turning to B2, the binding result is “no binding (tested: 5 to 20 µM)”.

The values above are taken from patent US20110159569A1 (AJOU UNIVERSITY INDUSTRYACADEMIC COOPERATION FOUND, published 2011).
